The source of these data is patent US20160103133.

The target of the series is recombinant RhoA (UniProt P61586).
Chain of recombinant RhoA (P61586 whole entry): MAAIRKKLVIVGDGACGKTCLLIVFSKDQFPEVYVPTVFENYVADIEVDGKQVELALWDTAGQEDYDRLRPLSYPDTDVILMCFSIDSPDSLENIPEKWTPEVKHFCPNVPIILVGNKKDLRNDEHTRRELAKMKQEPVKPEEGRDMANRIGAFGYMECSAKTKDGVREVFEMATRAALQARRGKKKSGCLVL

In the case of T7-tagged TRIO(G2699V), the “RhoGEF activity (mant-GTP exchange assay)” value is “the TRIO(G2699V) mutant was more capable of activating Rho than TRIO(WT)”.
